# B1: Lymphokine-activated killer T-cell-originated protein kinase (Homo sapiens), Q96KB5 (parent)
# chain: MEGISNFKTPSKLSEKKKSVLCSTPTINIPASPFMQKLGFGTGVNVYLMKRSPRGLSHSPWAVKKINPICNDHYRSVYQKRLMDEAKILKSLHHPNIVGYRAFTEANDGSLCLAMEYGGEKSLNDLIEERYKASQDPFPAAIILKVALNMARGLKYLHQEKKLLHGDIKSSNVVIKGDFETIKICDVGVSLPLDENMTVTDPEACYIGTEPWKPKEAVEENGVITDKADIFAFGLTLWEMMTLSIPHINLSNDDDDEDKTFDESDFDDEAYYAALGTRPPINMEELDESYQKVIELFSVCTNEDPKDRPSAAHIVEALETDV
# Variants of: B1
# Settings: with dlg1_human DLG1, Q12959
# dlg1_human DLG1, Q12959, sequence (Q12959 whole entry, looked up): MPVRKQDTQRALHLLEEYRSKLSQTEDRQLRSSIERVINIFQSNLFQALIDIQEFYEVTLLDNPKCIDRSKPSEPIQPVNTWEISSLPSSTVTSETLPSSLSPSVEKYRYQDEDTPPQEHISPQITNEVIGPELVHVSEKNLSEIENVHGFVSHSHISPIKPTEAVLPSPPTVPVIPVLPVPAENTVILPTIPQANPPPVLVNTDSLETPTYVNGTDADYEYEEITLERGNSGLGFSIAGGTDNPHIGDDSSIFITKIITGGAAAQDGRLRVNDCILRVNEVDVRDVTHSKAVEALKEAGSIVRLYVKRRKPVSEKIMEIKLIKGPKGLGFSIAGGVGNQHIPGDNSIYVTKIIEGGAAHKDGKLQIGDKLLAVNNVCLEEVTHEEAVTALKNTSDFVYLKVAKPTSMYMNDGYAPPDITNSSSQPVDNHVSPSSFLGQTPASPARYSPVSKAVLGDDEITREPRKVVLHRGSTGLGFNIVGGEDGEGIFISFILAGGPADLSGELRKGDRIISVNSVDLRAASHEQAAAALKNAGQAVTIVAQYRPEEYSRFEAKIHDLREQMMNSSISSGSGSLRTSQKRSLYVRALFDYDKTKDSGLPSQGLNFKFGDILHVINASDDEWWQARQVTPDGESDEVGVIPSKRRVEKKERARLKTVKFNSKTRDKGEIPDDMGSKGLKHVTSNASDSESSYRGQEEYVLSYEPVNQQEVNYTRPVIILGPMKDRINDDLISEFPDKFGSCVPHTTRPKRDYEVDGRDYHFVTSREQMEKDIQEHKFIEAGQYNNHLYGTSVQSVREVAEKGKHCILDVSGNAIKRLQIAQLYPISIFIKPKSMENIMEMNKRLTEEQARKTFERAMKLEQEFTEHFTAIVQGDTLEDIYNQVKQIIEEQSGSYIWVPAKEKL
row,effect of a mutation on the interaction,Variant
1,disrupting interaction,MEGISNFKTPSKLSEKKKSVLCSTPTINIPASPFMQKLGFGTGVNVYLMKRSPRGLSHSPWAVKKINPICNDHYRSVYQKRLMDEAKILKSLHHPNIVGYRAFTEANDGSLCLAMEYGGEKSLNDLIEERYKASQDPFPAAIILKVALNMARGLKYLHQEKKLLHGDIKSSNVVIKGDFETIKICDVGVSLPLDENMTVTDPEACYIGTEPWKPKEAVEENGVITDKADIFAFGLTLWEMMTLSIPHINLSNDDDDEDKTFDESDFDDEAYYAALGTRPPINMEELDESYQKVIELFSVCTNEDPKDRPSAAHIVEALETDA [V322A]
2,decreasing interaction,MEGISNFKTPSKLSEKKKSVLCSTPTINIPASPFMQKLGFGTGVNVYLMKRSPRGLSHSPWAVKKINPICNDHYRSVYQKRLMDEAKILKSLHHPNIVGYRAFTEANDGSLCLAMEYGGEKSLNDLIEERYKASQDPFPAAIILKVALNMARGLKYLHQEKKLLHGDIKSSNVVIKGDFETIKICDVGVSLPLDENMTVTDPEACYIGTEPWKPKEAVEENGVITDKADIFAFGLTLWEMMTLSIPHINLSNDDDDEDKTFDESDFDDEAYYAALGTRPPINMEELDESYQKVIELFSVCTNEDPKDRPSAAHIVEALEADV [T320A]

# — IntAct's records for PubMed 10779557
